Assay results: the DeepSol protein solubility set

Assay: soluble on expression in E. coli; label from the status in PepcDB or PDB records

| Sequence | soluble on expression in E. coli |
| --- | --- |
| MTLEEARKRVNELRDLIRYHNYRYYVLADPEISDAEYDRLLRELKELEERFPELKSPDSPTLQVGARPLEATFRPVRHPTRMYSLDNAFNLDELKAFEERIERALGRKGPFAYTVEHKVDGLSVNLYYEEGVLVYGATRGDGEVGEEVTQNLLTIPTIPRRLKGVPERLEVRGEVYMPIEAFLRLNEELEERGERIFKNPRNAAAGSLRQKDPRITAKRGLRATFYALGLGLEEVEREGVATQFALLHWLKEKGFPVEHGYARAVGAEGVEAVYQDWLKKRRALPFEADGVVVKLDELALWRELGYTARAPRFAIAYKFPAEEKETRLLDVVFQVGRTGRVTPVGILEPVFLEGSEVSRVTLHNESYIEELDIRIGDWVLVHKAGGVIPEVLRVLKERRTGEERPIRWPETCPECGHRLLKEGKVHRCPNPLCPAKRFEAIRHFASRKAMDIQGLGEKLIERLLEKGLVKDVADLYRLRKEDLVGLERMGEKSAQNLLRQIEESKKRGLERLLYALGLPGVGEVLARNLAARFGNMDRLLEASLEELLEVEEVGELTARAILETLKDPAFRDLVRRLKEAGVEMEAKEKGGEALKGLTFVITGELSRPREEVKALLRRLGAKVTDSVSRKTSYLVVGENPGSKLEKARALGVPTLTEEELYRLLEARTGKKAEELV | soluble |
| MSAICQVTGRQPGYGKSVSHSHRRTSRRWNPNVQRRKFYLPSEGRTITLNVSTKGLKVIDRDGIESVVAKIRARGEKILEHHHHHH | not soluble |
| YEFKKRNNIPMFFGIGNVTELFDVDSNGVNASIAAIGQEIGGNILFTPEASKKCKFSIKELKTASKMLFLAKKRNSLPKDVGYDLINYKDKKFDEEFELEDVKIIEAFENEKQLLDRGSFKIRVDRKNKEINATYYVHNQPKLIIRGNDPKKIYETALRENLITKMDHAAYFGKELRNAELALKLGKKYNQDFELFYNEFWN | not soluble |
| MNGKARISIAIDGPAGAGKSTIAKIISKTLNILYLDTGAMYRAVALKAIRESVDTLNREQMSKLVENIDIKIAHSEDIQRIFLDGEDVTDFIRTPEVSIGASNVATVPAVRLKMVELQREIAKKNSVVMDGRDIGTYVLPDATLKFFLTASVEARAIRRYNELLSKGITQITLEDVKKDIEYRDKNDSNREFAPLSKAPDAIEIDTTDLTIEQVVNKIMEYAKDYVC | soluble |
| RTGRELLDMCRASGHSVAGLMMRNELTWRGAAEIEQGLDRIWEVMQECVARGCGIGHPEADGDLPGPLKVRRRAPELYRALTQRAERTLSDPLSVMDWVNLYAMAVNEENAAGGRVVTAPTNGAAGIIPAVLHYYDRFVPAANRAGVHDFLLTAAAIGLLYKYNASLSGAEVGCQGEVGVACSMAAGALAAVQGGSVEQVENAAEIGMEHNLGLTCDPVGGLVQIPCIERNAMASVKAVNAARMALRGDGHHYVSLDSVIKTMRETGADMKTKYKETARGGLAVN | not soluble |
| MQKEFFQELQDILYEKNITIKFHSFQNFYEDFKSHKFIFNHEHQSIFKKNTSQQITLFHPTRIRRPKFLNSTHALAKIIHSVAHIEFNAINLALDASYRFKNLPLQFYYDWLEVADEEIKHFKLLNSALEELGYKYGDFPVHDNLESALEATKDSLSFRMGIVHRGLEAKGLDANPFVVQKLQSSNHSIKNLLMEYLEIILNDEIKHVKKGDTWWKFANQNKYNFIELCKTFKQFSLAGKKLNIQARIKAGFTQEECEVIEKFYSLEHHHHHH | not soluble |
| MTAEVTAADAEVLLAQPRGFCAGVDRAIDIVERALELHGAPIYVRHEIVHNRYVVEDLRGKGAVFIDELDQAPAGAIVVFSAHGVSQAVRGEAEARGLRVFDATCPLVTKVHIEVARMRAAGREIVMIGHKGHPEVEGTLGQAQGGMYLVETVEDVAALQVSDPGNLAYVTQTTLSVDDAAAVAGALKARFPGIVEPKKSDICYATQNRQDAVKLLAPECDLVLVVGSTNSSNSNRLREVAERKGVAAYLIDGAHAIDPAWLQGRRSIGITAGASAPEVLVQQVVERVRELGAVSVRTMPGLEESVAFPLPKGLSRKIAQTESLEAAALEHHHHHH | not soluble |
| SYLPAENHEYVAAKEGVMNIQTNQVMKVIFQLPDYLLNRYTQGVNVSAKMIFDAFPERSFDLTFQEIDTEADPKTGSYKVTMVMERPPELGILPGMSGNAYLVSQNSGATKIPDSALFEENGKTYVWRVDDQGVVAKADITMNDNGQILQGLADGDQIIISGINVIEPGIKVRAWVKERGL | not soluble |
| AVKTYGMFIGTQFDSSKFLYSAFQAESNLGIWRFAHDKRPKKQSFCRTEKSRRIAIDIVQGWLAVDYDLVGDVRIIRSVLVVSSEPIQTDYTNFTGLTGKPMELSQLLTITQSQSSAKLVCSCFRVTDKQIHDAMEKQDCTSLTQLQNKLKCGTNCGSCISQIKQMVDSHQHQKGKQQASQQSLAIQIK | not soluble |
| MSLIIDVLQHVPHEGPGLIANWARENQHQLKIHTLFEENEHVPKDSDFLIVLGGPMGINDTAEFPWLKDERKLIKRLSEQHKPVFGVCLGAQQIAATFGSEITVNKVKEVGWFPVKRTSDKLSFFPESLNVFHWHQDTFALPAGATRLFASEGCLNQAFLYGENIIGLQFHFEMEKAGIETILQIDEAFITPGKYVQSVEVMREKDVPEDNKQMLEAILDYLINPKTIEGHHHHHH | soluble |
| MKVGVVGTGFVGSTAAFALVLRGSCSELVLVDRDEDRAQAEAEDIAHAAPVSHGTRVWHGGHSELADAQVVILTAGANQKPGESRLDLLEKNADIFRELVPQITRAAPDAVLLVTSNPVDLLTDLATQLAPGQPVIGSGTVLDSARFRHLMAQHAGVDGTHAHGYVLGEHGDSEVLAWSSAMVAGMPVADFMQAQNLPWNEQVRAKIDEGTRNAAASIIEGKRATYYGIGAALARITEAVLRDRRAVLTVSAPTPEYGVSLSLPRVVGRQGVLSTLHPKLTGDEQQKLEQSAGVLRGFKQQLGL | soluble |
| MGSDKIHHHHHHMYKIGIDVGGTNTDAVILDENQQLIHSVKMPTSEDIETGITESLHRVLSETGIDRSKVTHAMLGTTQCTNAIVERKKLAKVGVLRLGYPATASVLPYTAWPEDMVGFLSGKYKLTGGGYEYDGQVLSEINEAEIRETLASWKGEVESVAVVGVFSSLKNDQELAVQKIIEEELGADIPVSISSSVGSVGLIERENATILNAALFKVIAATSDGFEKALEQEGIEHAEIYLCQNDGTLMSLNYARQFPILTIACGPTNSIRGASYLAGLKDAMVLDVGGTTSDIGVLTDGFPRESSLAVDVGGVRTNFRMPDIISIGLGGGSIVREKDGDITIGPDSVGYRISEEALVFGGKTMTTTDIAVRLGMAEIGNPELVAHIPTDFAEKAYKKIADMTEDAIDKMKTSSGSVSLVLVGGGSMIIPDEISGVAQIFRDKNGPVANAIGASISQISGQYEQIYIYSQIEREEALQDAEQKAREQATLAGAVTDSIEVVEVEEIPLAYHPGNATRLRVKVVGDLV | not soluble |
| MSIAVGMIETRGFPAVVEAADSMVKAARVTLVGYEKIGSGRVTVIVRGDVSGVQASVSAGIEAANRVNGGEVLSTHIIARPHENLEYVLPIRYTEEVEQFRTYGVPRGLEHHHHHH | soluble |
| MGSDKIHHHHHHMKVLDVIKQIQQAIVYIEDRLLEPFNLQELSDYVGLSPYHLDQSFKMIVGQSPEEYARARKMTIAANDVVNGASRLMDVAKKYRYANSNDFANDFSDFHGISPIQATTKKDELKIQQRLYIKLSTTENAPYTYRLQETDDISLVGYSRFIPTEQLSNPFNIPDFLEDLLVDGYIKELKRYNDTSPYELFVVSCPLEQGLEIFVGVPSERYPSHLESRFLPGRHYALFNLQGEIDYATNEAWYYIESSLQLTLPYERNSLYVEIYPLDISFNDPFTKIQLWLPIKQEIYDLDEGYQN | not soluble |
| GILELAGTVGCVGPRTPIAYMKYGCFCGLGGHGQPRDAIDWCCHGHDCCYTRAEEAGCSPKTERYSWQCVNQSVLCGPAENKCQELLCKCDQEIANCLAQTEYNLKYLFYPQFLCEPDSPKCD | soluble |
| SAAFPQWTRVDDKRFELALLQIPEGSPNFIENIAYYLQKPVKEVEYYYCALVHDIERIESGKYVLPKYPEDDYVKLTEAGESKGNGKKTGIPWSEEEQRLFLEGLNKFGKGDWKNISRYCVKSRTSTQVASHAQKYFARQKQESTNTKRPSIHDMTLGVAVNVPGSNLESTGQQPHFGDQIPSNQYYPSQENFRGFDQRW | soluble |
| IGDLSYSVSGNIATNNNEIVTLAGSDNMIQNGGDVVRYILKEGEAIGSYYGLETDGLYTQEEIDAGHYYKYGRKPNAGDIKYVPQRENVEWGDDITDDDRTIIGKDVPDFTYGININLQWKNFELSAFGQGVSGTSVAFESEQVFAFMLNSNPRKYHLSRWNEDNPNPNAACPRLYGGNYYDEYNKHFSDYQLFDADYFRIKTISLGYMVPKDAVTRWGLSSLKFFLTGENLFTFRADKDMKDFDPESSTGRGISAFGAKSVAFGVNVSF | not soluble |
| MAEAGIAHTALPLEAIPEKSAGKGEGLTLIIYMLELALHAIPENLKKTVYSKVELMAPRSDGVLLFYGLCGNVLGKIEEDFRALDCRVSILKEENGEIVDDCIGAVLGGRGHYLEALKSCRGAGTFFLTPMWAVNWREMIRTAGLSRNPDDIEMSKFVFDYAGYKRVARVNTGLAYEKDFDARVKEFSTLFEFEVTDLEGTLQLVENCYAKTKASMLEACPHSQTLEHHHHHH | not soluble |
| MTRQFLEFEQPIEELNQKIEALRMVGSDNEVNLSEEIARLEAKCSELTENIFSRLEPWQIAQMARHPLRPQTTDYIERIFTDFQELHGDRSYSSAPAIIGGMARLNGEPVMVLGHQKGKRTKEKVYRNFGMARPEEYRKALRLMRMAEKFKMPVVTFIDTAGAYPGIGAEERNQSEAIARNLFAMSRIKTPIVCIVTGEAGSGGALAIGVGDKIIMLQFSIYSVISPEGCASILWKDASKASEAARAMGITADRIFENELVDMVVPEPLGGAHRDVDEMASRLKRLLTSELQALKKVPLDQLIELRYQKFMAMGACD | not soluble |
| PHDFPHFDKERYARTTRKVIARMNQELASHEQIKGVLMIKEPWSIENGVLTPTLKIKRHVLEQKYHELGHNWPKDELVLWEEDL | not soluble |
| MDVQKKAQMVIEEVKKAIVGKDNVLKLVLATILADGHILIEDLPGLAKTLMAKSFAKALGLEFKRVQFTPDLLPSDILGVNVFNQKTLEFEFKKGPVFTNILLADEINRAPPKTQSALLEAMQERQVTIEGVTYKLPKPFIVIATQNPIEQEGTYPLPEAQLDRFLVRLRMGYPSKDEEKEILRRRIERKQDEVEIETVLSPKDVLKMQREVEDVYVSDAIIEYITSLVWATREDKRDIEIGVSPRGSLALLKLSRAYAAIEGRDYVIPDDVKAVAIPALSHRIILKRELWYTRVSQESVIEKILERVPVPKFE | soluble |
| MAHHHHHHMDDERTTAAGRITSTNVREEEPSITVPCELDTHIEQHERRKRGRVWTAEEQAAYWREKKEKQRQRKKAAAAERREMQQKEWEALSQSERERRRAEAIAVHEKRRGAEMRLQQLCQEHLADAKLPVLVFDLSFAWCMNASDCRSTVSQVKLSYSALRRHAFPLRPVITSIGGSADGEMACAHSDVLQSLCTFNGFSRYPLPVHENHWSSLYDLQRVVFLTADAEVVLERIEQGTVYIVGAFVDHNARKFLTRDAAIRYGVRMARLPIDESIKVGNICKVLTVNHVVDVLCRYTECGDWSTAFDVLPTRRTVSRRERRTNAHISMSSNTVFGECDSVDTDETGGTTRVASGQAD | not soluble |
| MADDFAYLNARVRVRRGTLLKESFFQEALDLSFADFLRLLSETVYGGELAGQGLPDVDRAVLRTQAKLVGDLPRLVTGEAREAVRLLLLRNDLHNLQALLRAKATGRPFEEVLLLPGTLREEVWRQAYEAQDPAGMAQVLAVPGHPLARALRAVLRETQDLARVEALLAKRFFEDVAKAAKGLDQPALRDYLALEVDAENLRTAFKLQGSGLAPDAFFLKGGRFVDRVRFARLMEGDYAVLDELSGTPFSGLSGVRDLKALERGLRCVLLKEAKKGVQDPLGVGLVLAYVKEREWEAVRLRLLARRAYFGLPRAQVEEEVVCP | soluble |
